Assay results as given in patent US20150267232A1, “IN VIVO AND IN VITRO CARBENE INSERTION AND NITRENE TRANSFER REACTIONS CATALYZED BY HEME ENZYMES” (California Institute of Technology, priority 2012, published 2015).

Tests used:
Format in all cases: biochemical
[1] = N—H insertion, aniline with ethyl 2-diazopropanoate; details: protein 20 μM, diazo 10.0 mM, aniline 20 mM
Experimental: The reactions shown in FIG. 37A were carried out with protein (20 μM), ethyl diazo acetate (8.5 mM), aniline (20 mM) and Na2S2O4 (10 mM) in phosphate buffer (pH 8) and allowed to shake at room temperature for 12 h. Yields are reported in parenthesis and TTN are presented in italics. Yields were determined by GC calibrated for each product. An isolated yield of 65% for compound 4.3 was determined for the milligram scale reaction run as follows: 25 mM EDA, 25 mM aniline, 25 μM protein, and 25 mM Na2S2O4. The reaction producing compounds 4.5 and 4.10 were carried out with protein (20 μM), ethyl diazo acetate (10.0 mM), aniline (20 mM) and Na2S2O4 (10 mM).
While substituted diazo compounds can also be used for insertion, the yield from N—H insertion of ethyl 2-diazopropanoate into aniline is only 26% (product 4.5). To improve efficiency of this reaction, we examined the reaction of ethyl 2-diazopropanoate with a variety of axial mutants. In particular, the axial mutant WT-AxA provided the desired product in 83% yield, compared to 8% yield and 1.7% yield with axial mutant WT-AxS and WT-BM3 heme domain, respectively (FIG. 37B).
The reactions shown in FIG. 37B were carried out with 10 μM catalyst loading, 20 mM aniline, 10 mM Na2S2O4 and 10 mM ethyl 2-diazopropanoate as described above. For the final entry in FIG. 37B, whole cells expressing BM3-CIS-T438S at 2.5 μM were used. See, U.S. Provisional Application No. 61/711,640 for the procedure for catalysis with whole cells.

[2] = N—H insertion, aniline with ethyl diazo acetate (EDA)
Text: We have found a variety of P450 variants to be general catalysts for carbenoid N—H insertion. We combined aniline with EDA in the presence of a reductant (Na2S2O4) under argon atmosphere and tested the mixture with seven P450BM3 variants previously identified as competent catalysts for cyclopropanation (Coelho, P. et al., Science. 2013, 339, 307-310). In choosing this set of P450s, we hypothesized that cyclopropanation activity could correlate with ability to generate the iron-carbenoid intermediate that is also necessary for N—H insertion. Whereas wild type BM3 (WT-BM3 (SEQ ID NO:1), Table 20, entry 1) provided only trace amounts of the desired product (4.3), a few variants gave 4.3 in good yields after 12 h at room temperature. In particular, variant H2-5-F10 which is derived from a thermostable P450BM3 lineage (Lewis, J. C. et al. ChemBioChem, 2010, 11, 2502-2505) and contains 15 mutation from WT-BM3 (SEQ ID NO:1), formed 4.3 in 47% yield and 473 turnovers (TTN) using 0.1% protein relative to EDA (entry 7). […] In contrast, when 1 mol % of the isolated hemin prosthetic group was used as catalyst, the single and double insertion products were produced in a 3.5 to 1 ratio (with a total product yield of 51%).
A representative procedure for P450-catalyzed N—H insertion is as follows. To an unsealed crimp vial, 60 μL of a P450 solution (67 or 133 μM) was added and the vial was sealed. A 12.5 mM solution of sodium dithionite in phosphate buffer (0.1 M, pH=8.0) was degassed by bubbling with argon in a 6 mL crimp-sealed vial. The headspace of the 2 mL vials containing P450 solution were flushed with argon (no bubbling). The buffer/dithionite solution (360 μL) was then added to each reaction vial via syringe, and the gas lines were disconnected from the vials. 10 μL of an 800 mM stock of aniline was added via a glass syringe, followed by 10 μL of a 340 mM stock of EDA (both stocks in MeOH). The reaction vials were then placed in a tray on a plate shaker and left to shake at 40 rpm. The final concentrations of the reagents were typically: 20 mM aniline, 8.5 mM EDA, 10 mM Na2S2O4, and 10 or 20 μM P450. After 12 h at 25° C., the vials were removed from the shaker and uncapped and 1 mL of cyclohexane was added, followed by 20 μL of a 20 mM solution of phenethyl alcohol (internal standard). The mixture was transferred to a 1.5 mL Eppendorf tube and vortexed and centrifuged (13,000×g, 1 min.). The organic layer was dried over sodium sulfate if necessary then analyzed by GC, with comparison to an authentically prepared sample that has been verified by proton NMR ([…], Varian, CDCl3).
Substitution is well-tolerated on the aniline partner on both the ortho and para positions. Reactions were analyzed by a Shimadzu GC with FID detector and J&W HP-5 column (30 m×0.32 mm, 0.25 μm film) and calibrated to an independently prepared sample of each product using phenethyl alcohol as internal standard. Reaction of aniline and EDA was also performed in milligram scale without any organic cosolvent to provide 4.3 in 65% isolated yield.
Calibration curves were plotted as follows. Yields of N—H insertion products were determined using calibration curves made with independently synthesized standards that have been verified by proton NMR, with comparison to known literature data (Baumann, L. K. et al. Organometallics. 2007, 26, 3995-4002; Anding, B. J. et al. Organometallics. 2013, 32, 2599-2607). Two stock solutions of product were made at 160 mM and 40 mM. To four or five samples containing 380 μL of buffer, product was added from either of the stock solutions such at a final concentration of 0.5-8.0 mM in 400 μL was obtained. 20 μL of internal standard was added to each eppendorf tube, then 1 mL of cyclohexane was added and the tubes were vortexed and centrifuged (13,000 ×g, 30 seconds). The organic layer was then analyzed by GC. The ratio of the areas under the internal standard and product peaks were plotted against the concentration for each solution. […]

[3] = P450BM3 compilation plate screen (GC, cyclopropane peaks); details: P450BM3 variants
[4] = N—H insertion, diethyl amine and 4.11 (lidocaine synthesis); details: GC-MS
Experimental: Diazo amides are also competent substrates for this reaction, and alpha-amino amides like 4.10 (FIG. 37A) can be produced in moderate yields. This transformation is particularly valuable because diazo amides can give rise to important building block compounds like diamines Additionally, this transformation can be used for the synthesis of lidocaine, which we were able to prepare using diethyl amine and 4.11 in the presence of H2-5-F10 (Scheme 1). […] (hold 1 min), 100-140° C. (6° C./min), 140-260° C. (20° C./min), 260° C. (hold 3 min)

[5] = Intramolecular carbene C—H insertion, substrate 4.1b; details: 10 mM 4.1b, 10 uM P450, 10 mM Na2S2O4; product 4.2b
Experimental: (§1) Yield of product 4.22b was established after calibration with phenethyl alcohol as an internal standard. The reaction is not catalyzed by the WT-BM3 heme domain or hemin at 5% catalyst loading.
(§2) A representative procedure for P450-catalyzed C—H insertion is as follows: A vial containing WT-AxD (20 μL, 200 μM) was sealed with a teflon cap and the headspace of this vial was purged with argon for 5 min. Concurrently, a solution of sodium dithionite (11 mM in phosphate buffer pH=8) was degassed for a minimum of 5 min and 360 μL of this solution was transferred to the vial containing protein. The gas lines were disconnected from the vials. The substrate 4.1a or 4.1b was then added as a solution (20 μL, 200 mM). Final concentrations of all components were: 10 uM enzyme, 10 mM substrate, and 10 mM dithionite. The reaction vials were then placed in a tray on a plate shaker and left to shake at 40 rpm for 12 h then 20 μL phenethyl alcohol (20 mM) was added as an internal standard.
(§3) The mixture was extracted with 1 mL cyclohexane and analyzed by GC-MS or GC. GC-MS was performed on a Shimadzu TQ8030 GC-MS with ion count detector and J&W HP-5 column (30 m×0.32 mm, 0.25 μm film) using the following method: 90° C. (hold 2 min), 90-190° C. (20° C./min), and 190-230 (40° C./min)

[6] = Intramolecular carbene C—H insertion, substrate 4.1a
Experimental: as §1
as §2, with “The reaction vials were then placed in a tray on a plate shaker and left to shake at 40 rpm for 12 h then 20 μL phenethyl alcohol (20 mM) was added as an internal standard.” left out
as §3

Row | Molecule | yield of product 4.5 [1] [%] | double insertion product ([2]; GC-MS and 1H NMR, milligram-scale reactions) | isolated yield of 4.3 ([2]; milligram scale, 25 mM EDA, 25 mM aniline, 25 μM protein, 25 mM Na2S2O4, no organic cosolvent) [%] | TTn ([2]; protein 10 uM, EDA 8.5 mM, aniline 20 mM, Na2S2O4 10 mM, 12 h) | % Yield ([2]; protein 10 uM, EDA 8.5 mM, aniline 20 mM, Na2S2O4 10 mM, 12 h, product 4.3) [%] | ee (cis) ([3]; (R,S)-(S,R), chiral β-CDX GC) | de ([3]; diastereomeric excess = ([cis] − [trans])/([cis] + [trans])) | Absolute activity ([3]; sum of the area of the cyclopropane peaks over the area of the internal standard) | production of lidocaine [4] | Yield % [5] [%] | Yield % ([6]; 10 mM 4.1a, 10 uM P450, 10 mM Na2S2O4, product 4.2a) [%] | lactone formation via C—H bond insertion ([6]; substrates 4.1a and 4.1b, 10 μM variant or hemin at 5% catalyst loading, 16 h)
1 | H2-5-F10: 9-10A TS + F87V, L75A, I263A, T268A, L437A (protein, listed as Bacillus megaterium, cytochrome P450NADPH-P-450 reductase precursor, cytochrome P450 (BM3), CYP102A1, 9-10A TS + F87V, L75A, I263A, T268A, L437A) TIKEMPQPKTFGELKNLPLLNTDKPVQALMKIADELGEIFKFEAPGRVTRYLSSQRLIKEACDESRFDKNLSQAAKFARDFAGDGLVTSWTHEKNWKKAHNILLPSFSQQAMKGYHAMMVDIAVQLVQKWERLNADEHIEVSEDMTRLTLDTIGLCGFNYRFNSFYRDQPHPFIISMVRALDEVMNKLQRANPDDPAYDENKRQFQEDIKVMNDLVDKIIADRKARGEQSDDLLTQMLNGKDPETGEPLDDGNIRYQIITFLAAGHEATSGLLSFALYFLVKNPHVLQKVAEEAARVLVDPVPSYKQVKQLKYVGMVLNEALRLWPTAPAFSLYAKEDTVLGGEYPLEKGDEVMVLIPQLHRDKTVWGDDVEEFRPERFENPSAIPQHAFKPFGNGQRACIGQQFALHEATLVLGMMLKHFDFEDHTNYELDIKETATLKPKGFVVKAKSKKIPLGGIPSPSTEQSAKKVRKKAENAHNTPLLVLYGSNMGTAEGTARDLADIAMSKGFAPQVATLDSHAGNLPREGAVLIVTASYNGHPPDNAKQFVDWLDQASADEVKGVRYSVFGCGDKNWATTYQKVPAFIDETLAAKGAENIADRGEADASDDFEGTYEEWREHMWSDVAAYFNLDIENSEDNKSTLSLQFVDSAADMPLAKMHGAFSTNVVASKELQQPGSARSTRHLEIELPKEASYQEGDHLGVIPRNYEGIVNRVTARFGLDASQQIRLEAEEEKLAHLPLAKTVSVEELLQYVELQDPVTRTQLRAMAAKTVCPPHKVELEALLEKQAYKEQVLAKRLTMLELLEKYPACEMKFSEFIALLPSIRPRYYSISSSPRVDEKQASITVSVVSGEAWSGYGEYKGIASNYLAELQEGDTITCFISTPQSEFTLPKDPETPLIMVGPGTGVAPFRGFVQARKQLKEQGQSLGEAHLYFGCRSPHEDYLYQEELENAQSEGIITLHTAFSRMPNQPKTYVQHVMEQDGKKLIELLDQGAHFYICGDGSQMAPAVEATLMKSYADVHQVSEADARLWLQQLEEKGRYAKDVWAG | 26 | No double insertion product was observed | 65 | 473 | 47 | −56 | −46 | 0.1412 | Production of lidocaine was observed |  |  | 
2 | WT-AxD: WT heme domain + C400D (protein, synthetic cytochrome P450-BM3 variant WT-AxD (heme), WT heme domain + C400D) TIKEMPQPKTFGELKNLPLLNTDKPVQALMKIADELGEIFKFEAPGRVTRYLSSQRLIKEACDESRFDKNLSQALKFVRDFAGDGLFTSWTHEKNWKKAHNILLPSFSQQAMKGYHAMMVDIAVQLVQKWERLNADEHIEVPEDMTRLTLDTIGLCGFNYRFNSFYRDQPHPFITSMVRALDEAMNKLQRANPDDPAYDENKRQFQEDIKVMNDLVDKIIADRKASGEQSDDLLTHMLNGKDPETGEPLDDENIRYQIITFLIAGHETTSGLLSFALYFLVKNPHVLQKAAEEAARVLVDPVPSYKQVKQLKYVGMVLNEALRLWPTAPAFSLYAKEDTVLGGEYPLEKGDELMVLIPQLHRDKTIWGDDVEEFRPERFENPSAIPQHAFKPFGNGQRADIGQQFALHEATLVLGMMLKHFDFEDHTNYELDIKETLSLKPKGFVVKAKSKKIPLGGIPSPST |  |  |  |  |  |  |  |  |  | 4 | 14 | lactone formation
